Test system: MS2 coat protein
Test: apparent KD of MS2 coat protein; designed switch direction (-1 OFF switch, 1 ON switch): -1; higher = weaker reporter binding
Procedure, shortened: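 For each design, the apparent KD is the median over clusters of curves fitted to normalised cluster fluorescence. Clusters held RNA switches with common flanks, transcribed on Illumina chips by stalled E. coli RNA polymerase. These were titrated with SNAP-549-labelled MS2 coat protein, doubling from 0.7 or 1.5 nM to 3 µM, without input, with 200 uM small-molecule ligand, or with an oligonucleotide input.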

[1] = input ligand: microRNA oligo, concentration not stated
[2] = Eterna round: R95, input ligand: microRNA oligo, concentration not stated
[3] = Eterna round: R95, input ligand: FMN 200 uM

Sequence	apparent KD of MS2 coat protein (input ligand: FMN 200 uM)	apparent KD of MS2 coat protein [1]	apparent KD of MS2 coat protein (input ligand: none)	apparent KD of MS2 coat protein [2]	apparent KD of MS2 coat protein [3]	apparent KD of MS2 coat protein (Eterna round: R95, input ligand: none)
CUGCUGGAGUUUUGCUUUGGUCGUACAUGAGGAUCACCCAUGUAGGAUAUGGUAAAAUUCGCCUGCUAGAAGGAUAGAGUGGUC [salish99_ExNG3_r04_621] (Eterna round: R96, puzzle: Exclusion NG 3)	35.5 nM	23 nM	32.4 nM			
AACAGUCUAGAGGAUAUGUGCGAUUAAUAUCGUGCAGAAGGCUGGACAUGAGGAUCACCCAUGUAAAUACUACC [Omei Ex6 A16] (Eterna round: R97, puzzle: Exclusion 6)	79.4 nM		34 nM			
UCAUACGGUGAGGAUAUCUCCGCUAAAGUGUGUAGAGAAGGCGCUACAUGAGGAUCACCCAUGUUUAUGGGCAG [Ex-6 Malc#12] (Eterna round: R96, puzzle: Exclusion 6)		271 nM				
GUGUACAGAGGAUAUGCACGAGUAGUUACGAAAGUAACUAUACAUGAGGAUCACCCAUGUAGAAGGCUGUACAC [Dot plot directed v3] (puzzle: Exclusion 2)				12.2 nM		
GUGGCACAUGAGGAUCACCCAUGUCAGGAUAUCGCGUGGUUUUUUUCGGCCGCGCGCGCGAGAAGGGACGUCUU (Eterna round: R96, puzzle: Exclusion 1)	26.8 nM	22.2 nM	30.9 nM			
AGUGGGUCAGGAUAUUCUAUUAAUUACAUGAGGAUCACCCAUGUGAAUGGACAAGGGUGUGAAGAAGGGACUUGCG [Omei Ex5 A17d] (Eterna round: R97, puzzle: Exclusion 5)	324 nM		546 nM			
CUAAAUCAUGUAGGAUAUGCGUGGCAAAGCUAUGCAGAAGGACAUGAGGAUCACCCAUGUCAUUCCGUCUGCGAACAGACGGGA [Mat - Exclusion NG 1 - Mod of JL - D50] (Eterna round: R96, puzzle: Exclusion NG 1)	161 nM	15.4 nM	20.3 nM			
GCCUCACUUGAGGAUCACCCAAGUCAGGAUAUCUACAAGCCGGCCAUACCGGCUUGCAAGAGAAGGGACUCUAA [Xemamaqu] (Eterna round: R97, puzzle: Exclusion 1)	178 nM		38.5 nM			
GAUUAUGCAAGCUUUCGGGACAUGAGGAUCACCCAUGUUCGUCUUAUUGAUCUAGGUACGCUGACGUACCUAGAUCU [JL-sv1-2.33 Brourd mod] (puzzle: Sensor v3, turn-off variant 1)				65.2 nM	17 nM	
GCCGAUUAAGUGAGGAUAUACCUAUGGAAACAUAGGUAGAAGGCACAUGAGGAUCACCCAUGUUCCUAUACGGC [Fiskers BMX 4 - 5] (puzzle: Brourd's mod of Exclusion 4)				12.3 nM	36.4 nM	11 nM
GGCAAAGUAGGAUAUACAUGAGGAUCACCCAUGUUUCCAGAUGGCGUAGGUCUUCUUUGUAGAAGGGCUAUGCC [Ananinge] (Eterna round: R97, puzzle: Exclusion 3)	20.1 nM		15.2 nM			
GUCGUGCGGCUUUGCUGUGCGGGUACAUGAGGAUCACCCAUGUAGGAUAUGGUGCGCUUUGCGUGCCAGAAGGGCGUGCGUUGG [salish99_ExNG3_r04_010] (Eterna round: R96, puzzle: Exclusion NG 3)	45.7 nM	28 nM	36.4 nM			
AAUCCACAUGAGGAUCACCCAUGUCAGGAUAUCGCGCGCGCGGUUUCGGUCGCGCGCGCGAGAAGGGACGGCUG (puzzle: Exclusion 1)				22.1 nM		

From the supplement of paper PMC9170038
